What was measured:
S-GSAS/6P/Wildtype = S-GSAS/6P/Wildtype (SARS-CoV-2 hCoV-19/Wuhan/WIV04/2019, UniProt P0DTC2, proline substitution at residue 817 | proline substitution at residue 892 | …); experiment: cryo-EM structure; settings: both partners purified
S-R/6P/Omicron BA.1 = S-R/6P/Omicron BA.1 (SARS-CoV-2 Omicron BA.1 (B.1.1.529), S371L | S373P | S375F | K417N | A484 | proline substitution at residue 817 | …); experiment: cryo-EM structure; settings: both partners purified

Binder	stoichiometry N (S-GSAS/6P/Wildtype)	stoichiometry N (S-R/6P/Omicron BA.1)
R1-32 Fab (Fab, V domains shown) VH: EVQLVESGAEVKKPGSSVKVSCKASGGTFSSYAISWVRQAPGQGLEWMGGIIPILGIANYAQKFQGRVTITADKSTSTAYMELSSLRSEDTAVYYCARENGYSGYGAAANFDLWGRGTLVTVSS VL: QSVLTQPPSVSGAPGQRVTISCTGSSSNIGAGYDVHWYQQLPGTAPKLLIYGNSNRPSGVPDRFSGSKSGTSASLAITGLQAEDEADYYCQSYDSSLSGSVFGGGTKLTVL	3 Fabs per spike trimer (3:3:3)	
YB13-292 Fab (Fab, V domains shown) VH: EVQLVESGGGLVKPGGSLRLSCAASGFSFITYNMNWVRQAPGKGLEWVSSISSNILSSTSYIYYADSVKGRFTISRDDAANSLFLQMNSLRVEDTAQYYCARTRSRSVRNCTSATCPVDAFDLWGQGTMVIVSS VL: DIVLTQSPLSLPVTPGEPASISCRSSQSLLRSNGYNYLDWYLQKPGQSPHLLIYLGSNRASGVPDRFSGSGSGTDFTLKISRVEAEDVGVYYCMQALQTPYTFGQGTNLEIK		3 Fabs per spike trimer (3:3 protomer:Fab)
YB9-258 Fab (Fab, V domains shown) VH: EVQLVESGGGLIQPGGSLRLSCAASGLTVSSNYMHWVRQAPGKGLEWVSVLYAGGSAFYADSVKGRFTISRNNSKNTLYLQMNSLRAEDTAIYYCARGLGDYLDSWGQGTLVTVSS VL: DIQMTQSPSSVSASVGDRVTITCRASQGIGSWLAWYQQKPGKAPQLLIYAASTLQSGVPPRFSGSGSGTDFTLTITSLQPEDFASYYCQQANSVLALTFGGGTKVEIK	3 Fabs per spike trimer (3:3:3)	

From publication PMC9951844 (Nature Communications, 2023)
